Experiment [1] addresses 2Ig-B7H3 (Cat: B73-H5253) (UniProt Q5ZPR3 29-245). As to the kind of experiment: SPR (Biacore 8K, 25 C), B7H3 captured by anti-human IgG, VHH as analyte, 1:1 model. As to the method:
(§1) 4Ig-B7H3 (Cat: 11188-H02H) and 2Ig-B7H3 (Cat: B73-H5253) proteins were coupled onto a CM5 Biocore sensor derivatized via amine coupling with anti-human IgG antibody (Cat: 29234600). The VHH fragments were then flowed through at a rate at 40 μl/min. Association of VHH to B7H3 proteins was monitored for 120 seconds and disassociation of VHH in buffer 1×HBS (0.01 M HEPES, pH 7.4, 0.15 M NaCl, 3 mM EDTA, 0.05% v/v surfactant P20) was monitored for more than 120 seconds.
(§2) Ka and Kd were determined by fitting the real-time sensorgram to a 1:1 binding model using Biacore Insight Evaluation software. Binding disassociation equilibrium constants (KD) were calculated from kinetics rates as follows: […]
(In general: SPR reads the build-up and loss of mass on a sensor chip optically.)

The target of experiment [2] is T1, 4Ig-B7H3 (Cat: 11188-H02H) (human).
T1 construct: also called B7H3-4IG; 4Ig-B7H3 proteins
The description is as above. As to the method: as §1, §2

By Kd is commonly meant the concentration at which binding is half-saturated. A higher Kd goes with a looser complex. In general, koff refers to a measure of how fast the partners let go of each other. Lower therefore signals slow dissociation. As a reminder, the kon is a measure of how fast the partners come together. Read a low kon as slow association.

T1 sequence (Q5ZPR3 29-461): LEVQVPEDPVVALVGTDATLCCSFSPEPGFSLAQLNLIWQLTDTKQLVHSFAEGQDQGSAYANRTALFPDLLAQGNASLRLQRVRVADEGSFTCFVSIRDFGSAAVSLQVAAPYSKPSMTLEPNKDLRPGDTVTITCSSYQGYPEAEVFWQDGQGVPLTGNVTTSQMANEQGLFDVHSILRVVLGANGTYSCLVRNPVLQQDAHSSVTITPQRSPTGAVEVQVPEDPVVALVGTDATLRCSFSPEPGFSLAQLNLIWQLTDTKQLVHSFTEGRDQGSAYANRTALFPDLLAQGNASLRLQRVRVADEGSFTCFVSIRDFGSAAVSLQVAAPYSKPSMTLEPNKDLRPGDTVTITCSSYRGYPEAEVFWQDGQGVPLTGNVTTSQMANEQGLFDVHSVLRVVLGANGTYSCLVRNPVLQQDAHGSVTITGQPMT
Chain of 2Ig-B7H3 (Cat: B73-H5253) (Q5ZPR3 other isoform, or with tags, fused parts or gaps): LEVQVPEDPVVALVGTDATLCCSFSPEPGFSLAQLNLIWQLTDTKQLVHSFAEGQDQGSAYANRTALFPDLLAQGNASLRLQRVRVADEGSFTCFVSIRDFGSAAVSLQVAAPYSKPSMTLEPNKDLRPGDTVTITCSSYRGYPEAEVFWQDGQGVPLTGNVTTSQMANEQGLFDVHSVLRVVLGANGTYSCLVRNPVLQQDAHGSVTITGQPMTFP

B1: VHH1_C002 (VHH)
VHH: EVQLLESGGGLVQPGGSLRLSCAASGFTFSDYHMSWVRQAPGKGLEWVSGILNTGLSPTYAATVTGRFTISRDNSKNTLYLQMNSLRAEDTAVYYCAQGYYRATPSQANRGQGTLVTVSS
notes: Monovalent VHH fragment with C-terminal 6xHis-tag, no Fc
B1: in experiment [1], the affinity, expressed as Kd, was 43.3 nM; the koff was found to be 0.129 s⁻¹; the kon is 2.99e+06 M⁻¹ s⁻¹. In experiment [2], binding was put at a Kd of 3.89 nM, the koff was 0.0096 s⁻¹ and the kon stood at 2.47e+06 M⁻¹ s⁻¹.

B2: VHH1_C001 (VHH)
VHH: EVQLVESGGGLVQPGGSLRLSCAASPRTFQTYFMGWFRQAPGKELEWVSVINWSGGTSYYKDSVKGRFTISRDNSKNTLYLQMNSLRAEDTAVYYCAAKGSGTYDREGEYDYWGQGTLVTVSS
notes: as for B1
In experiment [1], B2 yielded a Kd of 94.1 nM, a koff of 0.27 s⁻¹ and a kon of 2.87e+06 M⁻¹ s⁻¹. In experiment [2], this molecule came in with a Kd of 7.41 nM, a koff of 0.00677 s⁻¹ and a kon of 914000 M⁻¹ s⁻¹.

Source of the values: patent US20260085122A1 (BEONE MEDICINES I, published 2026).
